Results: IntAct's records for PubMed 38225382

B1: Peroxisomal biogenesis factor 3 (Homo sapiens), P56589 (parent)
chain: MLRSVWNFLKRHKKKCIFLGTVLGGVYILGKYGQKKIREIQEREAAEYIAQARRQYHFESNQRTCNMTVLSMLPTLREALMQQLNSESLTALLKNRPSNKLEIWEDLKIISFTRSTVAVYSTCMLVVLLRVQLNIIGGYIYLDNAAVGKNGTTILAPPDVQQQYLSSIQHLLGDGLTELITVIKQAVQKVLGSVSLKHSLSLLDLEQKLKEIRNLVEQHKSSSWINKDGSKPLLCHYMMPDEETPLAVQACGLSPRDITTIKLLNETRDMLESPDFSTVLNTCLNRGFSRLLDNMAEFFRPTEQDLQHGNSMNSLSSVSLPLAKIIPIVNGQIHSVCSETPSHFVQDLLTMEQVKDFAANVYEAFSTPQQLEK
partner: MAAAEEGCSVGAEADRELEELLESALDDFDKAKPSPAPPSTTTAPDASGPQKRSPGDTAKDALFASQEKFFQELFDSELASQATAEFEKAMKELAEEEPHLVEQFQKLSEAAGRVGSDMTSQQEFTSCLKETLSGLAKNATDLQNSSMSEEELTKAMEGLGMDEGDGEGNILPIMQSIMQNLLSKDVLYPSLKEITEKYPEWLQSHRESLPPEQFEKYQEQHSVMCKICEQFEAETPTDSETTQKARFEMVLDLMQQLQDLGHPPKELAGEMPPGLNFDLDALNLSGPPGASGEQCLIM
B2: Peroxisomal biogenesis factor 19 (Homo sapiens), P40855 (parent)
chain: B1 partner
B3: Peroxisomal biogenesis factor 3 (Homo sapiens), P56589 (parent)
chain: B1 chain
B4: GRB10-interacting GYF protein 1 (Homo sapiens), O75420 (parent)
chain: MAAETLNFGPEWLRALSGGGSVASPPPSPAMPKYKLADYRYGREEMLALYVKENKVPEELQDKEFAAVLQDEPLQPLALEPLTEEEQRNFSLSVNSVAVLRLMGKGAGPPLAGTSRGRGSTRSRGRGRGDSCFYQRSIEEGDGAFGRSPREIQRSQSWDDRGERRFEKSARRDGARCGFEEGGAGPRKEHARSDSENWRSLREEQEEEEEGSWRLGAGPRRDGDRWRSASPDGGPRSAGWREHGERRRKFEFDLRGDRGGCGEEEGRGGGGSSHLRRCRAPEGFEEDKDGLPEWCLDDEDEEMGTFDASGAFLPLKKGPKEPIPEEQELDFQGLEEEEEPSEGLEEEGPEAGGKELTPLPPQEEKSSSPSPLPTLGPLWGTNGDGDETAEKEPPAAEDDIRGIQLSPGVGSSAGPPGDLEDDEGLKHLQQEAEKLVASLQDSSLEEEQFTAAMQTQGLRHSAAATALPLSHGAARKWFYKDPQGEIQGPFTTQEMAEWFQAGYFSMSLLVKRGCDEGFQPLGEVIKMWGRVPFAPGPSPPPLLGNMDQERLKKQQELAAAALYQQLQHQQFLQLVSSRQLPQCALREKAALGDLTPPPPPPPQQQQQQLTAFLQQLQALKPPRGGDQNLLPTMSRSLSVPDSGRLWDVHTSASSQSGGEASLWDIPINSSTQGPILEQLQLQHKFQERREVELRAKREEEERKRREEKRRQQQQEEQKRRQEEEELFRRKHVRQQELLLKLLQQQQAVPVPPAPSSPPPLWAGLAKQGLSMKTLLELQLEGERQLHKQPPPREPARAQAPNHRVQLGGLGTAPLNQWVSEAGPLWGGPDKSGGGSSGLGLWEDTPKSGGSLVRGLGLKNSRSSPSLSDSYSHLSGRPIRKKTEEEEKLLKLLQGIPRPQDGFTQWCEQMLHTLSATGSLDVPMAVAILKEVESPYDVHDYIRSCLGDTLEAKEFAKQFLERRAKQKASQQRQQQQEAWLSSASLQTAFQANHSTKLGPGEGSKAKRRALMLHSDPSILGYSLHGSSGEIESVDDY
B5: F-box only protein 28 (Homo sapiens), Q9NVF7 (parent)
chain: MAAAAEERMAEEGGGGQGDGGSSLASGSTQRQPPPPAPQHPQPGSQALPAPALAPDQLPQNNTLVALPIVAIENILSFMSYDEISQLRLVCKRMDLVCQRMLNQGFLKVERYHNLCQKQVKAQLPRRESERRNHSLARHADILAAVETRLSLLNMTFMKYVDSNLCCFIPGKVIDEIYRVLRYVNSTRAPQRAHEVLQELRDISSMAMEYFDEKIVPILKRKLPGSDVSGRLMGSPPVPGPSAALTTMQLFSKQNPSRQEVTKLQQQVKTNGAGVTVLRREISELRTKVQEQQKQLQDQDQKLLEQTQIIGEQNARLAELERKLREVMESAVGNSSGSGQNEESPRKRKKATEAIDSLRKSKRLRNRK
B6: Estrogen-related receptor gamma (Homo sapiens), P62508-3 (parent)
chain: MSNKDRHIDSSCSSFIKTEPSSPASLTDSVNHHSPGGSSDASGSYSSTMNGHQNGLDSPPLYPSAPILGGSGPVRKLYDDCSSTIVEDPQTKCEYMLNSMPKRLCLVCGDIASGYHYGVASCEACKAFFKRTIQGNIEYSCPATNECEITKRRRKSCQACRFMKCLKVGMLKEGVRLDRVRGGRQKYKRRIDAENSPYLNPQLVQPAKKPLLWSDPADNKIVSHLLVAEPEKIYAMPDPTVPDSDIKALTTLCDLADRELVVIIGWAKHIPGFSTLSLADQMSLLQSAWMEILILGVVYRSLSFEDELVYADDYIMDEDQSKLAGLLDLNNAILQLVKKYKSMKLEKEEFVTLKAIALANSDSMHIEDVEAVQKLQDVLHEALQDYEAGQHMEDPRRAGKMLMTLPLLRQTSTKAVQHFYNIKLEGKVPMHKLFLEMLEAKV
B7: E3 ubiquitin-protein ligase TRIM37 (Homo sapiens), O94972 (parent)
chain: MDEQSVESIAEVFRCFICMEKLRDARLCPHCSKLCCFSCIRRWLTEQRAQCPHCRAPLQLRELVNCRWAEEVTQQLDTLQLCSLTKHEENEKDKCENHHEKLSVFCWTCKKCICHQCALWGGMHGGHTFKPLAEIYEQHVTKVNEEVAKLRRRLMELISLVQEVERNVEAVRNAKDERVREIRNAVEMMIARLDTQLKNKLITLMGQKTSLTQETELLESLLQEVEHQLRSCSKSELISKSSEILMMFQQVHRKPMASFVTTPVPPDFTSELVPSYDSATFVLENFSTLRQRADPVYSPPLQVSGLCWRLKVYPDGNGVVRGYYLSVFLELSAGLPETSKYEYRVEMVHQSCNDPTKNIIREFASDFEVGECWGYNRFFRLDLLANEGYLNPQNDTVILRFQVRSPTFFQKSRDQHWYITQLEAAQTSYIQQINNLKERLTIELSRTQKSRDLSPPDNHLSPQNDDALETRAKKSACSDMLLEGGPTTASVREAKEDEEDEEKIQNEDYHHELSDGDLDLDLVYEDEVNQLDGSSSSASSTATSNTEENDIDEETMSGENDVEYNNMELEEGELMEDAAAAGPAGSSHGYVGSSSRISRRTHLCSAATSSLLDIDPLILIHLLDLKDRSSIENLWGLQPRPPASLLQPTASYSRKDKDQRKQQAMWRVPSDLKMLKRLKTQMAEVRCMKTDVKNTLSEIKSSSAASGDMQTSLFSADQAALAACGTENSGRLQDLGMELLAKSSVANCYIRNSTNKKSNSPKPARSSVAGSLSLRRAVDPGENSRSKGDCQTLSEGSPGSSQSGSRHSSPRALIHGSIGDILPKTEDRQCKALDSDAVVVAVFSGLPAVEKRRKMVTLGANAKGGHLEGLQMTDLENNSETGELQPVLPEGASAAPEEGMSSDSDIECDTENEEQEEHTSVGGFHDSFMVMTQPPDEDTHSSFPDGEQIGPEDLSFNTDENSGR
B8: Host cell factor 1 (Homo sapiens), P51610-3 (parent)
chain: MASAVSPANLPAVLLQPRWKRVVGWSGPVPRPRHGHRAVAIKELIVVFGGGNEGIVDELHVYNTATNQWFIPAVRGDIPPGCAAYGFVCDGTRLLVFGGMVEYGKYSNDLYELQASRWEWKRLKAKTPKNGPPPCPRLGHSFSLVGNKCYLFGGLANDSEDPKNNIPRYLNDLYILELRPGSGVVAWDIPITYGVLPPPRESHTAVVYTEKDNKKSKLVIYGGMSGCRLGDLWTLDIDTLTWNKPSLSGVAPLPRSLHSATTIGNKMYVFGGWVPLVMDDVKVATHEKEWKCTNTLACLNLDTMAWETILMDTLEDNIPRARAGHCAVAINTRLYIWSGRDGYRKAWNNQVCCKDLWYLETEKPPPPARVQLVRANTNSLEVSWGAVATADSYLLQLQKYDIPATAATATSPTPNPVPSVPANPPKSL
partner: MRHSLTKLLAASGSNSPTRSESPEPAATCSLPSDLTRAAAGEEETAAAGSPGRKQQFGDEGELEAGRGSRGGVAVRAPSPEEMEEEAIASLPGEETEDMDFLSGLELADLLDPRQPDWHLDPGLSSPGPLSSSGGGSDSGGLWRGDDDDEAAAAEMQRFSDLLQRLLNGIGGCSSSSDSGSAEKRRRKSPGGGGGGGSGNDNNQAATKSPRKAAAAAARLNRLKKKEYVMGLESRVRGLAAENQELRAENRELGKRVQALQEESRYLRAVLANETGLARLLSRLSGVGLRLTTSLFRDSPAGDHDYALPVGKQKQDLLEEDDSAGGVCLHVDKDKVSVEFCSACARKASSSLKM
B9: CREB/ATF bZIP transcription factor (Homo sapiens), Q9NS37 (parent)
chain: B8 partner
partner: B8 chain

Variants of: B1
Details: with pex19_human PEX19, P40855

| Variant | effect of a mutation on the interaction |
| --- | --- |
| R54S | with no effect |
| T90Q | with no effect |
| E272R | with no effect |

Variants of: B2
Details: with pex3_human PEX3, P56589

| Variant | effect of a mutation on the interaction |
| --- | --- |
| F29K | decreasing interaction strength |

Variants of: B3
Details: with pex16_human PEX16, Q9Y5Y5
pex16_human PEX16, Q9Y5Y5, sequence (Q9Y5Y5 whole entry): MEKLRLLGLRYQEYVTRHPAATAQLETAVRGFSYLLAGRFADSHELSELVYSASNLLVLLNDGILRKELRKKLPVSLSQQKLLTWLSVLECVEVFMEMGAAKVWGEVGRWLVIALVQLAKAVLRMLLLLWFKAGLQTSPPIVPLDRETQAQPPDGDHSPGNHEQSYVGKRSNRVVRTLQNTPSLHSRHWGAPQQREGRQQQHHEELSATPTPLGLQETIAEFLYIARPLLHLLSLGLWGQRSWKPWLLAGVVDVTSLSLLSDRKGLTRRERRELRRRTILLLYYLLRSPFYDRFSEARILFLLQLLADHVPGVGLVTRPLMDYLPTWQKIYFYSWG

| Variant | effect of a mutation on the interaction |
| --- | --- |
| R54S | decreasing interaction strength |
| E272R | decreasing interaction strength |

Variants of: B4
Details: with SNRPB

| Variant | effect of a mutation on the interaction |
| --- | --- |
| W498E | decreasing interaction strength |
| L508F | with no effect |

Variants of: B5
Details: with stx1b_human STX1B

| Variant | effect of a mutation on the interaction |
| --- | --- |
| L152E | decreasing interaction strength |
| R348L | increasing interaction strength |
| I355R | with no effect |

Variants of: B6
Details: with prs8_human PSMC5, P62195
prs8_human PSMC5, P62195, sequence (P62195 whole entry): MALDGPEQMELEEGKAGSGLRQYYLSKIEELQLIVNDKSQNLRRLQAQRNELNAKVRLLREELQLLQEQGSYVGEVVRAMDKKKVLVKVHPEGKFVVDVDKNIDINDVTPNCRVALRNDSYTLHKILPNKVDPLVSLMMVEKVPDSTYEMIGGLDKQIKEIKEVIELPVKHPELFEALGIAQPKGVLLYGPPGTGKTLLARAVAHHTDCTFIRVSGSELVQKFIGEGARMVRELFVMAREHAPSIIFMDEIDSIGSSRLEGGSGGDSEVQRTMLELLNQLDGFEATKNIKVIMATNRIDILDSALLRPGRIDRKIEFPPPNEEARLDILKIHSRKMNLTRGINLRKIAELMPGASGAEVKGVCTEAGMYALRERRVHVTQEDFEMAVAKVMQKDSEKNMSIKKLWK

| Variant | effect of a mutation on the interaction |
| --- | --- |
| I264E | decreasing interaction strength |
| M437F | decreasing interaction strength |

Variants of: B7
Details: with pnkp_human PNKP

| Variant | effect of a mutation on the interaction |
| --- | --- |
| F328R | with no effect |
| N376R | with no effect |

Variants of: B8
Details: with zhang_human CREBZF

| Variant | effect of a mutation on the interaction |
| --- | --- |
| L138F | decreasing interaction strength |
| S225N | with no effect |
| L257F | decreasing interaction strength |

Variants of: B9
Details: with HCFC1, P51610-3

| Variant | effect of a mutation on the interaction |
| --- | --- |
| Y306A | decreasing interaction strength |
